Reference: patent publication US20080279838, “Reconstructed Human Mariner Transposon Capable of Stable Gene Transfer Into Chromosomes in Vertebrates” (published 2008)

Target: T1, Hsmar1-Prime transposase (Hsmar1-P) (Homo sapiens, UniProt Q53H47 SEQ:1-343)
T1 chain: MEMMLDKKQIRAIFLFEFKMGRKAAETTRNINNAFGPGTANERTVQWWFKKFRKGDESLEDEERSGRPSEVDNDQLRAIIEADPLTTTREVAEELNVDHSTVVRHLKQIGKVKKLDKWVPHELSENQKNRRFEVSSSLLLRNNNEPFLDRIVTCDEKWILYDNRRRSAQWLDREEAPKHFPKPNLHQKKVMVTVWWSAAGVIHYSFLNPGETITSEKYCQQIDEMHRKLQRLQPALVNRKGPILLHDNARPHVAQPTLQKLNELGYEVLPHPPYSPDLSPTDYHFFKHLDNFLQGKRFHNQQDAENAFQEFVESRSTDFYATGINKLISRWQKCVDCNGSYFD
Experiment: cell_activity; HeLa cells, donor pHsmar1/neo plus helper; excision with 3 bp footprint, integration at TA
Settings: tags: expressed from pFV-4a helper plasmid; chain copies: 2; 30 bp terminal inverted repeats in plasmid donor

B1: Hsmar1 transposon inverted repeats (left IR / right IR, flanking SV40-neo in pHsmar1/neo) (dsDNA)
DNA 1: TTAGGTTGGTGCAAAAGTAATTGCGGTTTT
DNA 2: AAAACCGCAATTACTTTTGCACCAACCTAA
  activity: ~20 fold increase in G418-resistant colonies
